Assay [1] deals with SpyTag003-MBP. The assay is described as follows: SDS-PAGE with sfGFP fluorescence, pH 7.0, 25 C.
Experimental: (§1) The sfGFP fusions were used to enable reactions to be carried out at concentrations as low as 10 nM. […] Percentage isopeptide product formation was calculated by dividing the intensity of the band for the covalent complex by the intensity of all the bands in the lane and multiplying by 100. […] Time-points were analysed during the linear portion of the reaction curve. […] Experiments were carried out in triplicate and the data represent the mean±1 standard deviation.
The target in assay [2] is SpyTag003-MBP. The assay is described as follows: SDS-PAGE with sfGFP fluorescence, pH 7.0, 25 C. This is another data set of the same source.
Experimental: as §1
The target in the next assay is T1, SpyTag002-MBP (also: fused to MBP, sequence and linker not given here).
T1 construct: not shown: construct pET28a SpyTag002-MBP, GenBank MF974389
T1 chain: VPTIVMVDAYKRYK
Kind of assay: SDS-PAGE with sfGFP fluorescence, pH 7.0, 25 C.

Another assay deals with T2, SpyTag-MBP.
T2 construct: not shown: construct pET28a-SpyTag-MBP, Addgene 35050
The assay is described as follows: SDS-PAGE with sfGFP fluorescence, pH 7.0, 25 C.

In a further assay the target is T3, SpyTag003 DA-MBP (also: fused to MBP, sequence and linker not given here).
T3 chain: RGVPHIVMVAAYKRYK
Kind of assay: isothermal titration calorimetry, 20 C, PBS pH 7.4, non-covalent complex. A general note: In ITC the heat of successive injections is recorded.

Read-outs that look alike come from different tables or passages of the source. No end group written: not given here.

Experimental for SpyTag-MBP: as §1
Experimental for SpyTag002-MBP: as §1
Experimental for SpyTag003 DA-MBP: Experiments were carried out using a Microcal PEAQ-ITC calorimeter (Malvern) at 20° C. in PBS pH 7.4. […] Analysis was carried out using a 1:1 binding model using MicroCal PEAQ-ITC Analysis software version 1.1.0.1262.

B1: SpyCatcher003-sfGFP (designed binder)
chain: VTTLSGLSGEQGPSGDMTTEEDSATHIKFSKRDEDGRELAGATMELRDSSGKTISTWISDGHVKDFYLYPGKYTFVETAAPDGYEVATPIEFTVNEDGQVTVDGEATEGDAHT
notes: also called SpyCatcher003 fused to the N-terminus of super-folder GFP; not shown: super-folder GFP (sfGFP) C-terminal of the catcher
On to B1, for which the “Rate constant (second-order, isopeptide bond formation)” value turned out to be 550000 M⁻¹ s⁻¹ with SpyTag003-MBP [1], 550000 M⁻¹ s⁻¹ with SpyTag003-MBP [2], 83000 M⁻¹ s⁻¹ in the assay with SpyTag002-MBP and 24000 M⁻¹ s⁻¹ in the assay with SpyTag-MBP.

B2: SpyCatcher003 (designed binder)
chain: B1 chain
notes: also called 003 Catcher
As for B2, the dissociation constant (Kd) with SpyTag003 DA-MBP is less than 10 nM.

A word on the Kd: it is the equilibrium constant for the complex coming apart.
